Where no end group is shown, it is not given here.
biological target: T1, His-tagged soluble Gβ1γ2 (C68S) (UniProt P62873;P59768, C68S); experiment: AlphaScreen or HTRF; direct binding: 20 nM biotinylated Nb5 with 0.1 nM-1 μM His-tagged Gβ1γ2; concentration-response curves fitted for EC50; conditions: both partners purified
T1 construct: G-protein subunit β1 (Gβ1); G-protein subunit γ2 (Gγ2) with C68S (soluble); it is entered on Gβ1; For MST the His tag was labelled with Red-tris-NTA; also called full-length Gβ1γ2; His6-Gβ1γ2; source: Sf9 cells, purified as previously described (69)

| Binder | EC50 [nM] |
| --- | --- |
| biotinylated Nb5 (VHH, also called Nanobody-5; source: expressed and purified as described previously (53); plasmid a gift of the Palczewski laboratory) VHH: QVQLVESGGGLVQAGGSLRLSCAASGSIFSINAMGWYRQAPGKQRELVAAITRGGRTNYADSVKGRFTLSRDNAKNTVYLQMNSLKPEDTAVYYCNVGRSRGYWGQGTQVTVSS | 3.72 |

biological target: T1, His-tagged soluble Gβ1γ2 (C68S); experiment: AlphaScreen or HTRF; competition: Nb5 0.4 nM-1.26 μM; biotinylated SNAP25 with an EC80 concentration of His-tagged Gβ1γ2; conditions: both partners purified

| Binder | IC50 [nM] |
| --- | --- |
| Nanobody-5 (Nb5) (VHH, as the chain of m17; source: expressed and purified as described previously (53); plasmid a gift of the Palczewski laboratory) VHH: QVQLVESGGGLVQAGGSLRLSCAASGSIFSINAMGWYRQAPGKQRELVAAITRGGRTNYADSVKGRFTLSRDNAKNTVYLQMNSLKPEDTAVYYCNVGRSRGYWGQGTQVTVSS | 24.6 |

biological target: T2, biotinylated SNAP25 (UniProt P60880 1-206, biotin (site not stated)); experiment: AlphaScreen or HTRF; competition: Gγ peptides 1 nM-100 μM; 20 nM biotinylated SNAP25 on streptavidin donor beads, 180 nM His6-Gβ1γ2 on nickel chelate acceptor beads; 20 mM HEPES pH 7.0, 10 mM NaCl, 40 mM KCl, 5% glycerol, 0.01% Triton X-100; 27 °C; conditions: both partners purified
T2 construct: SNAP25, wild type; also called full-length SNAP25; synaptosomal-associated protein-25; source: expressed and purified as described (12, 39)

| Binder | IC50 [nM] |
| --- | --- |
| ITPVPTSENPFREKK (on the array: C-terminus coupled to the membrane, Gγ3, human, printed as residues 56-70; source: synthetic peptide: SPOT array on membrane (ResPep SL)) [Gγ3, res. 56–70 peptide] | 7010 |
| GASASALQRLVEQLK (on the array: C-terminus coupled to the membrane, Gγ10, human, residues 4-18; source: synthetic peptide: SPOT array on membrane (ResPep SL)) [Gγ10, res. 4–18 peptide] | 430 |
| MPVINIEDLTEKDKL (Gγ1, human, residues 1-15; also called Gγ1 N-terminal peptide; source: peptide stock in DMSO) [Gγ1, res. 1–15 peptide] | > 100000 |
| LKYQLAFQREMASKT (on the array: C-terminus coupled to the membrane, Gγ13, human, residues 16-30; source: synthetic peptide: SPOT array on membrane (ResPep SL)) [Gγ13, res. 16–30 peptide] | 9460 |
| TPVPASENPFREKKF (on the array: C-terminus coupled to the membrane, Gγ2, human, residues 52-66; also called Gγ2 peptide 18 (by the array's scheme of 15-mers shifted by three); source: synthetic peptide: SPOT array on membrane (ResPep SL)) [Gγ2, res. 52–66 peptide] | 12600 |
| LTGVSSSTNPFRPQK (on the array: C-terminus coupled to the membrane, Gγ5, human, residues 49-63; source: synthetic peptide: SPOT array on membrane (ResPep SL)) [Gγ5, res. 49–63 peptide] | 1720 |
| PVPAAENPFRDKRLF (on the array: C-terminus coupled to the membrane, Gγ8, human, residues 52-66; source: synthetic peptide: SPOT array on membrane (ResPep SL)) [Gγ8, res. 52–66 peptide] | 640 |
| IGQARKMVEQLKIEA (also: C-terminus coupled to the membrane, Gγ3, human, residues 13-27; source: synthetic peptide: SPOT array on membrane (ResPep SL)) [Gγ3, res. 13–27 peptide] | 4040 |
| STNNIAQARRTVQQL (on the array: C-terminus coupled to the membrane, Gγ12, human, residues 7-21; source: synthetic peptide: SPOT array on membrane (ResPep SL)) [Gγ12, res. 7–21 peptide] | 2910 |
| MASNNTASIAQARKL (on the array: C-terminus coupled to the membrane, Gγ2, human, residues 1-15; also called Gγ2 N-terminal peptide; Gγ2 amino-terminal peptide; source: synthetic peptide: SPOT array on membrane (ResPep SL)) [Gγ2, res. 1–15 peptide] | 540 |

biological target: T3, His-tagged soluble Gβ1γ2 (C68S) (UniProt P62873 1-340; P59768 1-71, C68S); experiment: AlphaScreen or HTRF; competition: SNAP25 C-terminal peptide (189-206) against biotinylated full-length SNAP25 for His6-Gβ1γ2; conditions: both partners purified
T3 construct: G-protein subunit β1 (Gβ1); G-protein subunit γ2 (Gγ2) with C68S (soluble); it is entered on Gβ1; For MST the His tag was labelled with Red-tris-NTA; also called full-length Gβ1γ2; His6-Gβ1γ2; source: Sf9 cells, purified as previously described (69)

| Binder | IC50 [nM] |
| --- | --- |
| KTRIDEANQRATKMLGSG (peptide, UniProt P60880 189-206, looked up, also called C-terminal SNAP25 peptide) [SNAP25 C-terminal peptide (residues 189–206)] | 1840 |
